Laboratory results taken from patent publication US20260092121A1 (TALEM THERAPEUTICS, published 2026).
Positions count from the first letter of the chain named. Numbers in names are those of the source.

What was measured:
[1] = biological target: TrkB in PathHunter eXpress TrkB Functional Assay cells (modified U2OS); assay: cell-based or functional assay
mouse TrkB-ECD-GST = biological target: T1, mouse TrkB-ECD-GST (mouse, UniProt P15209 32-429); assay: ELISA
T1 construct: extracellular domain; in-house fusion, HEK293; also called mTrkB-ECD-GST; mTrkB (ELISA); not shown: glutathione S-transferase (GST) fusion part

human TrkA-His = human TrkA-His (human, UniProt P04629 33-417, limits assumed); assay: ELISA
human TrkC-His = human TrkC-His (human, UniProt Q16288 32-429); assay: ELISA
human TrkB-His [2] = biological target: T2, human TrkB-His (human, UniProt Q16620 32-430); assay: BLI off-rate, mAb captured
T2 construct: in-house fusion of the TrkB ECD with poly-His, HEK293; also called huTrkB-His; hTrkB-His; not shown: poly-His tag

human TrkB-His [3] = biological target: T2, human TrkB-His; assay: ELISA

Chain of human TrkA-His (P04629 33-417 limits assumed): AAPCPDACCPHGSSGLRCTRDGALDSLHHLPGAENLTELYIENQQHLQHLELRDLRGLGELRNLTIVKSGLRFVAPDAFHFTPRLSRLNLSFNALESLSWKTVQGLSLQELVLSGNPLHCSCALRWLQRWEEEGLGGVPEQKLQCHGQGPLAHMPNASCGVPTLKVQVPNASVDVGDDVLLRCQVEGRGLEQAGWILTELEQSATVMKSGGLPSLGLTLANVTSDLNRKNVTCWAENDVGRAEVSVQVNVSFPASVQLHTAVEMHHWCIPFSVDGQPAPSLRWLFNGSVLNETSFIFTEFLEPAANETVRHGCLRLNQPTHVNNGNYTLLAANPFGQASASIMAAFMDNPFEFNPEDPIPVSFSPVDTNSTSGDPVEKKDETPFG

B1: anti-TrkB clone 2E02 (antibody, V domains shown)
VH: QVQLQQSGPGLVKPSQTLSVTCVISGDSVSSKSAAWHWIRQSPSRGLEWLGRTYYRSKWYSDYGESVKSRVVINADTSNNQISLQLSSVTPEDTAAYYCARGIGSLNFDIWGQGTMVTVSS
VL: QSVLTQPPSASGSPGQSVTISCTGTSGDVGGYNYVSWYQQHPGKAPKLILYEVTKRPSGVPDRFSGSKSGNTASLTVSGLQAEDEADYYCSSYGGPNNLVLFGGGTKVTVL
notes: full-length IgG
TrkB activation (EC50) [1]: 0.12 µg/mL
binding result (mouse TrkB-ECD-GST): binds
binding result (human TrkA-His): no binding (tested: up to 10 µg/mL)
binding result (human TrkC-His): no binding (tested: up to 10 µg/mL)
koff (human TrkB-His [2]): 0.0113 s⁻¹

B2: anti-TrkB clone 1F01 (antibody, V domains shown)
VH: B1 VH with S15A, V20L, V23D
VL: QSVVTQPASVSGSPGQSITISCTGTSSDIGGYDYVSWYQQHPGKAPKLMIFDVSNRPSGVSNRFSGSKSGNTASLTISGLQADDEADYYCSSYRAGSTLNLLFGGGTKLTVL
notes: full-length IgG
TrkB activation (EC50) [1]: 0.51 µg/mL
binding result (mouse TrkB-ECD-GST): binds
binding result (human TrkA-His): no binding (tested: up to 10 µg/mL)
binding result (human TrkC-His): no binding (tested: up to 10 µg/mL)
koff (human TrkB-His [2]): 0.011 s⁻¹

B3: anti-TrkB clone 2C07 (antibody, V domains shown)
VH: QVQLQQSGGGVVQPGRSLRLSCAASGFTFSNYAMHWVRQAPGKGLEWVAVISYDGSNEYYADSVKGRFTISRDNSRNTLDLQMNSLRAEDTAVYYCARGTNYGMDVWGQGTMVTVSS
VL: LSELTQDPAVSVALGQTVRITCQGDSLRSYYASWYQQKPGQAPVLVIYGKNNRPSGIPDRFSGSDSGKTASLTITGAQAEDEADYYCQSRDTTGNYLLFGGGTKLTVL
notes: full-length IgG
TrkB activation (EC50) [1]: 0.036 µg/mL
binding result (mouse TrkB-ECD-GST): binds
binding result (human TrkA-His): no binding (tested: up to 10 µg/mL)
binding result (human TrkC-His): no binding (tested: up to 10 µg/mL)
koff (human TrkB-His [2]): 0.00399 s⁻¹

B4: anti-TrkB clone 3C12 (antibody, V domains shown)
VH: QVQLVQSGAEVKKPGESLKISCKGSGYSFTSYWIGWVRQMPGKGLEWMGIIYPGDSDTRYSPSFQGQVTISADKSISTAYLQWSSLKASDTAMYYCTRSSFNDHWGQGTLVTVSS
VL: QPVLTQPPSVSVSPGQTASITCSGDKLGNKFVSWFQQKPGQSPVLVIYQDTKRPSGIPERFSGSNSGSTATLTITGTQAMDDADYYCQAWNTNTALFGGGTKLTVL
notes: full-length IgG
TrkB activation (EC50) [1]: 0.018 µg/mL
binding result (mouse TrkB-ECD-GST): binds
binding result (human TrkA-His): no binding (tested: up to 10 µg/mL)
binding result (human TrkC-His): no binding (tested: up to 10 µg/mL)
koff (human TrkB-His [2]): 0.000586 s⁻¹

B5: anti-TrkB clone 4G12 (antibody, V domains shown)
VH: EVQLVQSGAEVKKPGESLKISCKGSGYSFTSYWIGWVRQMPGKGLEWMGIIYPGDSDTRYSPSFQGQVTISADKSISTAYLQWSSLKASDTAMYYCARHDYGMDVWGQGTTVTVSS
VL: QSVLTQPPSVSVSPGQTASITCSGDKLGDKFASWYQQKPGQSPVLVIYQDNKRPSRVPERFSGSNSGNTATLTISETQAMDEADYYCQAWVNNTVVFGGGTKVTVL
notes: full-length IgG
TrkB activation (EC50) [1]: 0.07 µg/mL
binding result (mouse TrkB-ECD-GST): binds
binding result (human TrkA-His): no binding (tested: up to 10 µg/mL)
binding result (human TrkC-His): no binding (tested: up to 10 µg/mL)
koff (human TrkB-His [2]): 0.00545 s⁻¹

B6: anti-TrkB clone 5C01 (antibody, V domains shown)
VH: QMQLVQSGAEVKKPGESLKISCKGSGYSFTSYWIGWVRQMPGKGLEWLGIIYPGDSDTRYSPSFQGQVTISADKSISTAYLQWSSLKASDTAMYYCARLGQGSGPFDYWGQGTLVTVSS
VL: QSVVTQPPSVSGTPGQRVSISCSGSSSNIGSHSVTWFQQLPGTAPKLLIYGNSQRPSGVPDRFSGSKSGTSASLAISGLQSEDEADYYCASWDDSLNGYVFGTGTKLTVL
notes: full-length IgG
TrkB activation (EC50) [1]: 0.08 µg/mL
binding result (mouse TrkB-ECD-GST): binds
binding result (human TrkA-His): no binding (tested: up to 10 µg/mL)
binding result (human TrkC-His): no binding (tested: up to 10 µg/mL)
koff (human TrkB-His [2]): 0.00491 s⁻¹

B7: anti-TrkB clone 1E02 (antibody, V domains shown)
VH: QVQLLQSAAEVKKPGESLKISCKGSGYRFTSYWIGWVRQMPGKGLEWVGIIYPDDSDTRYSPSFQGQVTISADTSISTTYLQWSSLKASDTAIYYCASGEVAFDVWGQGTTVTVSS
VL: QSVLTQPPSLSVSPRQTASITCSGDKLGDKFVSWYQQKPGQSPVLVIYQDTKRPSGIPERFSGSNSGNTATLTISGTQAMDEADYYCQAWDSSTGVFGGGTKLTVL
notes: full-length IgG
TrkB activation (EC50) [1]: 0.047 µg/mL
binding result (mouse TrkB-ECD-GST): binds
binding result (human TrkA-His): no binding (tested: up to 10 µg/mL)
binding result (human TrkC-His): no binding (tested: up to 10 µg/mL)
koff (human TrkB-His [2]): 0.00318 s⁻¹

B8: anti-TrkB clone 5A07 (antibody, V domains shown)
VH: B5 VH with E1Q, T111M
VL: LPVLTQPPSASGTPGQRVTISCSGSRSNVGGNTVSWYQQLPGSAPKLLIYTNNQRPSGVPDRFSGSKSGTSASLAISGLQSEDEADYYCAAWDDSLNGYVFGTGTQLTVL
notes: full-length IgG
TrkB activation (EC50) [1]: 0.13 µg/mL
binding result (mouse TrkB-ECD-GST): binds
binding result (human TrkA-His): no binding (tested: up to 10 µg/mL)
binding result (human TrkC-His): no binding (tested: up to 10 µg/mL)
koff (human TrkB-His [2]): 0.00544 s⁻¹

B9: KiH.F5_TrkB × 1A09_CD3 (bispecific antibody)
scFv: not shown
VH: EVQLVQSGGGLVKPGGSLRLSCAASGFTFSSYSMNWVRQAPGKGLEWVSSISSSSSYIYYADSVKGRFTISRDNSKNTLYLQMNSLRAEDTAVYYCARVKDYDSSLDYWGQGTLVTVSS
VL: SYELMQPPSVSVSPGQTARITCSGFKLGDKYVSWYQQKPGQSPVLVIYQDSKRPSGIPERFSGSNSGNTATLTISGTQAMDEADYYCQAWDSSTVVFGGGTKLTVL
notes: scFv-knob-Fc (IgG1 T366W/S354C) + Fab-hole-Fc (T366S/L368A/Y407V/Y349C); also called F5×1A09; F5-1A09
binding result (human TrkB-His [3]): binds

B10: KiH.F5_TrkB × 8A05_CD3 (bispecific antibody)
scFv: not shown
VH: QVQLQQSGGGLVQSGGSLRLSCAASGFSFGSSAMSWVRQAPGRGLEWVSGISHSGSTTYYADSVKGRFTISRDNSKNTLYLQMNSLRVEDTAVYYCAKIGAYGYYFHYWGQGTLVTVSS
VL: NFMLTQPHSVSESPGKTVTISCTRSGGSIASNYVQWYQQRPGSSPTTVIYDDNQRPSGVPDRFSGSIDSSSNSASLTISGLKTEDEADYYCQSSDNINHVIFGGGTKLTVL
notes: scFv-knob-Fc (IgG1 T366W/S354C) + Fab-hole-Fc (T366S/L368A/Y407V/Y349C); also called F5-8A05; F5_8A05
binding result (human TrkB-His [3]): binds

B11: KiH.F5_TrkB × 3G07_CD3 (bispecific antibody)
scFv: not shown
VH: B10 VH with S14P
VL: NFMLTQPHSLSESPGKTVTISCTRSSGSIASKYVQWYQQRPGSAPTTVIYDDKQRPSGVPDRFSGSFDSSSNSASLTISGLKTEDEADYYCQSFDSTNQAVVFGGGTKLTVL
notes: scFv-knob-Fc (IgG1 T366W/S354C) + Fab-hole-Fc (T366S/L368A/Y407V/Y349C); also called F5-3G07; F5_3G07
binding result (human TrkB-His [3]): binds

B12: KiH.3H11_TrkB × 1A09_CD3 (bispecific antibody)
scFv: QVQLQQSGPGLVKPSQTLSLTCAISGDSVSSNSAVWNWIRQSPSRGLEWLGRTYYRSKWYTDFAVSVKSRITINPDTSKNQFSLQLNSVTPEDTAVYYCARGRNGMDVWGQGTMVTVSTSSGGGGSGGGGSGGSALLPVLTQPPSASGTPGQRVTISCSGSSSNIGHKYVYWYQQLPGAAPKLLIYRNNQRPSGVPDRFSASKSGTSASLAISGLRSEDEADYYCATWDDSLNGVVFGGGTKVTVL
VH: B9 VH
VL: B9 VL
notes: scFv-knob-Fc (IgG1 T366W/S354C) + Fab-hole-Fc (T366S/L368A/Y407V/Y349C); also called 3H11-1A09
binding result (human TrkB-His [3]): binds

B13: KiH.3H11_TrkB × 8A05_CD3 (bispecific antibody)
scFv: B12 scFv
VH: B10 VH
VL: B10 VL
notes: scFv-knob-Fc (IgG1 T366W/S354C) + Fab-hole-Fc (T366S/L368A/Y407V/Y349C); also called 3H11-8A05
binding result (human TrkB-His [3]): binds

B14: KiH.3H11_TrkB × 3G07_CD3 (bispecific antibody)
scFv: B12 scFv
VH: B10 VH with S14P
VL: B11 VL
notes: scFv-knob-Fc (IgG1 T366W/S354C) + Fab-hole-Fc (T366S/L368A/Y407V/Y349C); also called 3H11-3G07
binding result (human TrkB-His [3]): binds

B15: KiH.6E08_TrkB × 1A09_CD3 (bispecific antibody)
scFv: QVQLVQSGGGVVQPGRSLRLSCAASGFTFSSYAMHWVRQAPGKGLEWVAVISYDGSNKYYADSVKGRFTISRDNSKNTLYLQMNSLRAEDTAVYYCARAFRRYDAFDIWGQGTLVTVSSSSGGGGSGGGGSGGSALDIQMTQTPLSLSVTLGQPASISCRSSQGLVYSDGNTYLNWFQQRPGQSPRRLIYKVSNRDSGVPDRFSGSGSGTDFTLKISRVEAEDVGVYYCMQGTHWPPAFGQGTKVEIK
VH: B9 VH
VL: B9 VL
notes: scFv-knob-Fc (IgG1 T366W/S354C) + Fab-hole-Fc (T366S/L368A/Y407V/Y349C); also called 6E08-1A09
binding result (human TrkB-His [3]): binds

B16: KiH.6E08_TrkB × 8A05_CD3 (bispecific antibody)
scFv: B15 scFv
VH: B10 VH
VL: B10 VL
notes: scFv-knob-Fc (IgG1 T366W/S354C) + Fab-hole-Fc (T366S/L368A/Y407V/Y349C); also called 6E08-8A05
binding result (human TrkB-His [3]): binds
